Assay results published in US10287340B2, “Anti-HIV domain antibodies and method of making and using same” (priority 2008, dated 2019).
Entries after “also recorded” stand apart in the source; their conditions may differ. Like-named read-outs stand apart in the source and are kept apart here.

Experiments:
gp120Bal-CD4 [1] = test: Binding ELISA to gp120Bal-CD4 (Example 3); set-up: species or system HIV-1
[2] = system: Viruses pseudotyped with HIV-1 Envs; test: Pseudovirus neutralization assay; format: cell-based; details: for neutralizing activity compared to m36: side by side in the same experiment
[3] = target: serum albumin from human (HSA) (Homo sapiens, UniProt P02768); test: Binding of m36SAbp to human serum albumin; details: data not shown
[4] = target: serum albumin from bovine (BSA) (Bos taurus, UniProt P02769); test: Binding of m36SAbp to bovine serum albumin; details: data not shown
[5] = target: serum albumin from mouse (MSA) (Mus musculus, UniProt P07724); test: Binding of m36SAbp to mouse serum albumin; details: data not shown
gp120Bal = test: ELISA binding to gp120 alone; set-up: species or system HIV-1; details: without CD4
[6] = system: gp140 from a clade C isolate GXC-44 (gp140GXC-44); test: Binding ELISA to gp140GXC-44; set-up: species or system HIV-1
gp120Bal-CD4 [7] = test: Competition ELISA on gp120Bal-CD4; format: binding, HIV-1
Method: (§1) Antigens were coated and blocked as described above. […] Mixtures were subsequently added to each well and incubated. Bound m36 was detected and the assay was developed as described above.

gp140GXC-44 = test: Competition ELISA on gp140GXC-44; format: binding, HIV-1; details: in the absence of CD4
Method: as §1

[8] = Storage of VH protein solutions at 4° C., precipitation; format: physicochemical; details: stored at 4° C. for 4 weeks
soluble CD4 (sCD4) = soluble CD4 (sCD4) (Homo sapiens, UniProt P01730); test: ELISA binding to CD4 alone
BSA = BSA (Bos taurus, UniProt P02769); test: Binding ELISA to BSA (unrelated antigen)
[9] = Size exclusion chromatography, oligomerization; details: Superdex75, PBS

Chain of tethered gp140 from 89.6 (Q73372 32-496 limits assumed): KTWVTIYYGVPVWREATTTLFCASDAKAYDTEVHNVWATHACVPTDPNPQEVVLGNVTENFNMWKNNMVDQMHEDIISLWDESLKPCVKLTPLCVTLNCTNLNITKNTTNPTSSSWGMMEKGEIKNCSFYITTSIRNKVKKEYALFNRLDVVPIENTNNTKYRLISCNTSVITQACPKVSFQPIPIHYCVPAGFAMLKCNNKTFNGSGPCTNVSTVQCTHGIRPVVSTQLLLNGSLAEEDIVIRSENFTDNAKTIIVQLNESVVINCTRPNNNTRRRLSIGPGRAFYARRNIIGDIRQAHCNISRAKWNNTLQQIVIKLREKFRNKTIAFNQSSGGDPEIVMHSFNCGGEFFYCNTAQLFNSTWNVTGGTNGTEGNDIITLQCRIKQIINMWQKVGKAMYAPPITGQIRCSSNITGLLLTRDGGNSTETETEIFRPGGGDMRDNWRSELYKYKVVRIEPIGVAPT
Chain of serum albumin from mouse (MSA) (P07724 25-608): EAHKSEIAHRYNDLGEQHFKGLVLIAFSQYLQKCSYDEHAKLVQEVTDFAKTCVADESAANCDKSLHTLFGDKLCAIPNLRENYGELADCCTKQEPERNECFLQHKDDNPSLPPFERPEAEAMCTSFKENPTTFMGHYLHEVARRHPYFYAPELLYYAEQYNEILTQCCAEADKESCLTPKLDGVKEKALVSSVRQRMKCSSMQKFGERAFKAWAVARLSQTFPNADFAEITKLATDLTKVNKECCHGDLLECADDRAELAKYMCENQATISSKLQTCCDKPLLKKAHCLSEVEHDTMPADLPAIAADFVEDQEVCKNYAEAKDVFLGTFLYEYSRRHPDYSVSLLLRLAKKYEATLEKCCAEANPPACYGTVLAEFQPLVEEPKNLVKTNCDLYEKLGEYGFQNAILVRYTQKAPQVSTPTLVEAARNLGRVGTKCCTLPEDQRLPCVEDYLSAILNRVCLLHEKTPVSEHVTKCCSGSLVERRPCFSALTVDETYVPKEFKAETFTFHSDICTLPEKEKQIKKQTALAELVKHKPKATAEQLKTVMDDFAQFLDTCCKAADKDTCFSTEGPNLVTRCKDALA
Chain of BSA (P02769 25-607): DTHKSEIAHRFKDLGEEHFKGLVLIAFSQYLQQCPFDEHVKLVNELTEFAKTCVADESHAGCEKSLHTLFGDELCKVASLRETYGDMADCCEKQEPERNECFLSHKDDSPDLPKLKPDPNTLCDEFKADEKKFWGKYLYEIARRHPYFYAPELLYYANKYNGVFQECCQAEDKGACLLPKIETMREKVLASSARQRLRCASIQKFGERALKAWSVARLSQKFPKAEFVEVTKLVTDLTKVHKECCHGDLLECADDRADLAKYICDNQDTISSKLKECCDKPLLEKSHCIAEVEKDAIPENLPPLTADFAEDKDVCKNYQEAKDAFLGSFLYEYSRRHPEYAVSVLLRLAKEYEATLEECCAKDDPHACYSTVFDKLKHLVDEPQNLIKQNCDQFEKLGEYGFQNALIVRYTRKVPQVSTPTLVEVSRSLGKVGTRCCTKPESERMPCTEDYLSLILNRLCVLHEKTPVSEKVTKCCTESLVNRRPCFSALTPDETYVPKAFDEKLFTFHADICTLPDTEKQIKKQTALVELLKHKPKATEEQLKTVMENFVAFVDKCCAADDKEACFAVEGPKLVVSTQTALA
Chain of serum albumin from bovine (BSA) (P02769 25-607): as above

B1: m36h3Fc: m36 joined with human IgG1 Fc by a human IgG3 hinge (protein)
chain: QVQLVQSGGGLVQPGGSLRLSCAASAFDFSDYEMSWVRQAPGKGLEWIGEINDSGNTIYNPSLKSRVTISRDNSKNTLYLQMNTLRAEDTAIYYCAIYGGNSGGEYWGQGTLVTVSSELKTPLGDTTHTCPRCPEPKSCDTPPPCPRCP
modifications: left off: a dimerising Fc or GST
notes: m36 joined with human IgG1 Fc by a human IgG3 hinge
EC50 (gp120Bal-CD4 [1]): ~0.5 nM
number of isolates neutralized [2]: five isolates
potency against 89.6 compared to m36 [2]: higher than that of m36
potency compared to m36h1Fc [2]: did not exhibit higher potency

B2: m36SAbp: m36 fused to a serum albumin binding peptide (SAbp), MW~18 kDa (protein)
chain: QVQLVQSGGGLVQPGGSLRLSCAASAFDFSDYEMSWVRQAPGKGLEWIGEINDSGNTIYNPSLKSRVTISRDNSKNTLYLQMNTLRAEDTAIYYCAIYGGNSGGEYWGQGTLVTVSSQRHPEDICLPRWGCLWGDDD
modifications: left off: small tags and cut ends
binding to gp120Bal-CD4 compared to m36 (gp120Bal-CD4 [1]): comparable to that of m36
neutralizing activity compared to m36 [2]: slight but not significant decrease; also recorded: about the same neutralizing activity
binding to serum albumin [3]: binds
binding to serum albumin [4]: binds
binding to serum albumin [5]: binds

B3: m36: human VH domain antibody (dAb) on m0 scaffold targeting CD4i epitope of HIV-1 gp120; CDR3 AIYGGNSGGEY (protein)
VHH: QVQLVQSGGGLVQPGGSLRLSCAASAFDFSDYEMSWVRQAPGKGLEWIGEINDSGNTIYNPSLKSRVTISRDNSKNTLYLQMNTLRAEDTAIYYCAIYGGNSGGEYWGQGTLVTVSS
binding to gp120 alone (gp120Bal): not to gp120Bal or to soluble CD4 (sCD4) and BSA
binding to gp140GXC-44 ([6]; gp140GXC-44 alone): did bind although weaker
binding to gp140GXC-44 ([6]; in the presence of sCD4): bound
competition with CD4bs antibody m14 for binding to gp120Bal-CD4 (gp120Bal-CD4 [7]): not with the CD4 binding site (CD4bs) antibody m14
competition with CD4i antibody m16 for binding to gp120Bal-CD4 (gp120Bal-CD4 [7]): competed
competition with m14 for binding to gp140GXC-44 (gp140GXC-44): competed
inhibition of the isolate from clade C ([2]; at 667 nM): 100%
isolates completely (100%) inhibited ([2]; at 667 nM, 7 clade B isolates in panel): 4 out of 7
neutralization of the clade E isolate GXE ([2]; at concentrations up to 667 nM): did not neutralize
potency compared to peptide C34 ([2]; average over panel): on average more potent
neutralization potency compared to scFv m9 ([2]; average, six clade B, one clade C, one clade A isolate, IC50s on molar basis): two-fold higher
cross-reactivity against HIV-1 isolates ([2]; clade A, B, C, and D): cross-reactive
neutralization activity compared to scFv m9 ([2]; clade B isolate 89.6 and clade-D isolate Z2Z6): lower neutralization activity
IC90 ([2]; clade C isolate GXC-44 and clade B isolate NL4-3): very low IC90s
precipitation on storage [8]: no precipitation
binding to tethered gp140 from 89.6 (tethered gp140 from 89.6; after gp140 bound to CD4): enhanced
binding to tethered gp140 from 89.6 (tethered gp140 from 89.6; without complexation with CD4): bound
binding to CD4 alone (soluble CD4 (sCD4)): not to gp120Bal or to soluble CD4 (sCD4) and BSA
binding to CD4 alone (soluble CD4 (sCD4); listed as b5): neither gp120 nor CD4 alone
binding to BSA (BSA): not to gp120Bal or to soluble CD4 (sCD4) and BSA
oligomeric state [9]: monomeric

B4: m36CH3: m36 fused to human IgG1 CH3 domain without linker, MW~60 kDa (protein)
VHH: QVQLVQSGGGLVQPGGSLRLSCAASAFDFSDYEMSWVRQAPGKGLEWIGEINDSGNTIYNPSLKSRVTISRDNSKNTLYLQMNTLRAEDTAIYYCAIYGGNSGGEYWGQGTLVTVSS
modifications: left off: a dimerising Fc or GST; small tags and cut ends
notes: m36 fused to human IgG1 CH3 domain without linker, MW~60 kDa
binding to gp120Bal-CD4 compared to m36 (gp120Bal-CD4 [1]): comparable to that of m36
isolates with loss of neutralization compared to m36 ([2]; 10 isolates): 7 of 10
IC50s compared to the corresponding ones for m36 ([2]; IIIB, 89.6 and NL4-3): significantly higher
neutralizing activity compared to m36 [2]: significantly weaker

B5: m36b0Fc: m36 fused to human IgG1 Fc without peptide linker, MW~80 kDa (protein)
VHH: QVQLVQSGGGLVQPGGSLRLSCAASAFDFSDYEMSWVRQAPGKGLEWIGEINDSGNTIYNPSLKSRVTISRDNSKNTLYLQMNTLRAEDTAIYYCAIYGGNSGGEYWGQGTLVTVSS
modifications: left off: a dimerising Fc or GST
notes: m36 fused to human IgG1 Fc without peptide linker, MW~80 kDa
binding to gp120Bal-CD4 compared to m36 (gp120Bal-CD4 [1]): bound slightly better
inhibitory activity against 89.6 and NL4-3 [2]: decreased inhibitory activity
neutralization of TCLA isolate IIIB [2]: lost neutralization

B6: m36c2Fc: m36 joined with human IgG1 Fc by a camel IgG2 hinge (protein)
chain: QVQLVQSGGGLVQPGGSLRLSCAASAFDFSDYEMSWVRQAPGKGLEWIGEINDSGNTIYNPSLKSRVTISRDNSKNTLYLQMNTLRAEDTAIYYCAIYGGNSGGEYWGQGTLVTVSSEPKIPQPQPKPQPQPQPQPKPQPKPEPECTCPKCP
modifications: left off: a dimerising Fc or GST
notes: m36 joined with human IgG1 Fc by a camel IgG2 hinge
EC50 (gp120Bal-CD4 [1]): ~0.5 nM
number of isolates neutralized [2]: five isolates
potency against 89.6 compared to m36 [2]: higher than that of m36
potency compared to m36h1Fc [2]: did not exhibit higher potency
